Results taken from patent publication CN111153992A (BEIJING CHEST HOSPITAL CAPITAL MEDICAL UNIV; BEIJING …, dated 2020).

T1: 结核分枝杆菌特异性重组蛋白38KD (Mycobacterium tuberculosis, UniProt P9WGU1 24-374)
T1 sequence (looked up): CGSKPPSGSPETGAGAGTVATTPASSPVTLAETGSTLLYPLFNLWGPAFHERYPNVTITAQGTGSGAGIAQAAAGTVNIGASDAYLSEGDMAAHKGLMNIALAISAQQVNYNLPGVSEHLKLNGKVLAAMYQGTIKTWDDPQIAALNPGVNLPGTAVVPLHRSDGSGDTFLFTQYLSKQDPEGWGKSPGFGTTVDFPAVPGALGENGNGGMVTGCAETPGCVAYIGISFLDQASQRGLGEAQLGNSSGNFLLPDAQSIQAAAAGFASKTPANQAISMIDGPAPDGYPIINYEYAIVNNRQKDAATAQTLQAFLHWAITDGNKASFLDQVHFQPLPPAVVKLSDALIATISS

T2: 结核分枝杆菌特异性重组蛋白MPT32 (Mycobacterium tuberculosis, UniProt P9WIR7 40-325)
T2 sequence (looked up): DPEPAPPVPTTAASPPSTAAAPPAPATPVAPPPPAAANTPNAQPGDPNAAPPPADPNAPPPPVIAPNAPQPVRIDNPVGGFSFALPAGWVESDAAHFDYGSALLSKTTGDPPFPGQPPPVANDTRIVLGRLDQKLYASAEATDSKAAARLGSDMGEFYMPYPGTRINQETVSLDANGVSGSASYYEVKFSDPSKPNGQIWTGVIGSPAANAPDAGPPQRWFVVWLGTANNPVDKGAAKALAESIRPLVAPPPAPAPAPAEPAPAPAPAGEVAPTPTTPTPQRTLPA

T3: 结核分枝杆菌特异性重组蛋白MPT64 (Mycobacterium tuberculosis, UniProt P9WIN9 24-228)
T3 sequence (looked up): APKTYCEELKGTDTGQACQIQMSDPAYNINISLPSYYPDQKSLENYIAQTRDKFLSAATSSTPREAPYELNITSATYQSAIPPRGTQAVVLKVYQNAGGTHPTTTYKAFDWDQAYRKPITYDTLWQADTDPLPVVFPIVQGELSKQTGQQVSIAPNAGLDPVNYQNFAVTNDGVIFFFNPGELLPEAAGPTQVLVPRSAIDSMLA

T4: 结核分枝杆菌特异性重组蛋白CFP10 (Mycobacterium tuberculosis, UniProt P9WNK5 1-100)
T4 sequence (looked up): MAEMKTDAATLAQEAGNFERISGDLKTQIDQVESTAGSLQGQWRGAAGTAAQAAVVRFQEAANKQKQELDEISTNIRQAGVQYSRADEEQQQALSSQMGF

T5: 结核分枝杆菌特异性重组蛋白EspC (Mycobacterium tuberculosis, UniProt P9WJD7 1-103)
T5 sequence (looked up): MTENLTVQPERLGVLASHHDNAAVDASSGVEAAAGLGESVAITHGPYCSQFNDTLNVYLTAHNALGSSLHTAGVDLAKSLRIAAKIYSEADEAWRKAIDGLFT


How the values were obtained:
Assay in all cases: indirect ELISA, recombinant protein coated on plate
结核分枝杆菌特异性重组蛋白38KD = molecular target: T1, 结核分枝杆菌特异性重组蛋白38KD
结核分枝杆菌特异性重组蛋白MPT32 = molecular target: T2, 结核分枝杆菌特异性重组蛋白MPT32
结核分枝杆菌特异性重组蛋白MPT64 = molecular target: T3, 结核分枝杆菌特异性重组蛋白MPT64
结核分枝杆菌特异性重组蛋白Mtb81 = 结核分枝杆菌特异性重组蛋白Mtb81 (Mycobacterium tuberculosis, UniProt P9WK17 1-741)
Sequence of 结核分枝杆菌特异性重组蛋白Mtb81 (P9WK17 whole entry): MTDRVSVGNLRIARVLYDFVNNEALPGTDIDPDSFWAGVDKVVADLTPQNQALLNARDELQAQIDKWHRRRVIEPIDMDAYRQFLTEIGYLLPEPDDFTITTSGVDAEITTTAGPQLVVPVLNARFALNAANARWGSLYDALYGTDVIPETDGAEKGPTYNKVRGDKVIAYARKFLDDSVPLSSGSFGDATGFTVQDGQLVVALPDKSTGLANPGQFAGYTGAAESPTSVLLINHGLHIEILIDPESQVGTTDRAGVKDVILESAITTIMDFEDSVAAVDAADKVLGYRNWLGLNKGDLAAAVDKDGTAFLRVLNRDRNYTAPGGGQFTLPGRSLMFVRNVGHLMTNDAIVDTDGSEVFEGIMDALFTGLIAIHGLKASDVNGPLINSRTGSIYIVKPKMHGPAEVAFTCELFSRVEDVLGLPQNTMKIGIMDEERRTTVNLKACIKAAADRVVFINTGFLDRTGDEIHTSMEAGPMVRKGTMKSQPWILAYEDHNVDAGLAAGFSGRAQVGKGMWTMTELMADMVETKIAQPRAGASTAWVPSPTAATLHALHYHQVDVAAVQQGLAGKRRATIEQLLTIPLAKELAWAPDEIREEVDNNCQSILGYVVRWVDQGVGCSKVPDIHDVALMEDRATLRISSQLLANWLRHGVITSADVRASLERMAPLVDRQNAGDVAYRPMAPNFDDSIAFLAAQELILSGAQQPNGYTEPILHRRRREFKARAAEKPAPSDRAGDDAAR

结核分枝杆菌特异性重组蛋白CFP10 = molecular target: T4, 结核分枝杆菌特异性重组蛋白CFP10
结核分枝杆菌特异性重组蛋白EspC = molecular target: T5, 结核分枝杆菌特异性重组蛋白EspC

Row | Binder | binding result (结核分枝杆菌特异性重组蛋白38KD) | binding result (结核分枝杆菌特异性重组蛋白MPT32) | binding result (结核分枝杆菌特异性重组蛋白MPT64) | binding result (结核分枝杆菌特异性重组蛋白Mtb81) | binding result (结核分枝杆菌特异性重组蛋白CFP10) | binding result (结核分枝杆菌特异性重组蛋白EspC)
1 | BJRbL01 (antibody, V domains shown, also called 兔抗LAM单克隆抗体 BJRbL01; 抗LAM抗体) VH: QSVEESGGRLVTPGTSLTLTCTVSGFSLSNYDMGWVRQAPGKGLEWIGNIWSNGYTDYASWVNGRFTISKTSSTTMDLKMTSLTTEDMATYFCARGSSGYVGDIWGPGTLVTVSS VL: DPVLTQTPASVEVAVGGTVTMNCQASHSVYGNNELSWYQQKPGQPPKLLVYKASTLASGVPSRFKGSGSGTQFTLTISDLECDDAAIYYCQGGYWGNRAFGGGTEVVVKG | no binding (tested: protein coated at 5μg/ml) | no binding (tested: protein coated at 5μg/ml) | no binding (tested: protein coated at 5μg/ml) | no binding (tested: protein coated at 5μg/ml) | no binding (tested: protein coated at 5μg/ml) | no binding (tested: protein coated at 5μg/ml)
2 | BJRbL03 (antibody, V domains shown, also called 兔抗LAM单克隆抗体 BJRbL03; 抗LAM抗体) VH: QSLEESGGRLVTPGTSLTLTCTVSGFSLRSYDMGWVRQAPGKGLEWIGSIWSNDFTDYASWVNGRFTVSKTSSTTMDLKMTSLTSEDTATYFCVRGSSGYVGDIWGPGTLVTVSS VL: DPMLTQTASSVSAAVGGTVTINCQASQSVYGNNELSWYQQKPGQPPKLLIYKASTLASGVPSRFKASGSGTQFTLTISDLECDDAAIYYCQGGYWGNRAFGGGTKLEIKG | no binding (tested: protein coated at 5μg/ml) | no binding (tested: protein coated at 5μg/ml) | no binding (tested: protein coated at 5μg/ml) | no binding (tested: protein coated at 5μg/ml) | no binding (tested: protein coated at 5μg/ml) | no binding (tested: protein coated at 5μg/ml)
